For the experiment, the target named is GST-p65(1-306) (UniProt Q04206 1-306). In words: pull-down.
Sequence of GST-p65(1-306) (Q04206 1-306): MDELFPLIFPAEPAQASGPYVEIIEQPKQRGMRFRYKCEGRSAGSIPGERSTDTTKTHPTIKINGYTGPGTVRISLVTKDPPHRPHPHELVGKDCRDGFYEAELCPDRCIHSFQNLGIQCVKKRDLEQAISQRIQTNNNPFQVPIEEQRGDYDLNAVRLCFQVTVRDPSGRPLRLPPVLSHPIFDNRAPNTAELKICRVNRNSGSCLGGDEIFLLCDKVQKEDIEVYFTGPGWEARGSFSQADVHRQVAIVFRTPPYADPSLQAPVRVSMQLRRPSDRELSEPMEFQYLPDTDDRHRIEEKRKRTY

Take GGSSLSY [GGSSLSY peptide]: the binding result is listed as “binds”.

Source of the values: article PMC2760979 (Cancer research, 2009).
